Reference: the supplement of paper PMC5998384

How the values were obtained:
[1] = system: HeLa Kyoto; assay: solubility in G1/S (NP-40 vs SDS abundance) (log2 ratio); higher = more soluble; conditions: cell cycle stage: G1/S
[2] = system: HeLa Kyoto; assay: melting temperature (median over replicates), in situ; higher = more thermally stable
[3] = system: HeLa Kyoto; assay: solubility change mitosis vs G1/S (difference of NP-40 vs SDS log2 ratios) (log2 ratio difference); higher = more soluble in mitosis
[4] = system: HeLa Kyoto; assay: thermal stability score vs G1/S (z-score of summed log2 fold changes over temperatures); higher = more thermally stable than in G1/S
[5] = cell cycle stage: early G1 (4.5 h after nocodazole release)
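Throughout, for melting temperature (median over replicates), in situ: HeLa Kyoto cells synchronized by double thymidine or nocodazole block, proteins quantified by TMT10plex mass spectrometry, three independent biological replicates.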
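Throughout, for solubility change mitosis vs G1/S (difference of NP-40 vs SDS log2 ratios): synchronized HeLa Kyoto cells (double thymidine block for G1/S, nocodazole release for mitosis), protein amounts in NP-40 versus SDS lysates quantified by mass spectrometry, three biological replicates.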
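Throughout, for solubility in G1/S (NP-40 vs SDS abundance): HeLa Kyoto cells arrested at G1/S by double thymidine block, proteins quantified by TMT10plex mass spectrometry in mild NP-40 versus SDS extracts, three biological replicates.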
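Throughout, for thermal stability score vs G1/S (z-score of summed log2 fold changes over temperatures): synchronized HeLa Kyoto cells, proteins quantified by TMT10plex mass spectrometry, three biological replicates, mitosis taken 0.5 h after nocodazole release, G1/S directly after double thymidine block.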

Sequence | solubility in G1/S (log2) [1] | melting temperature ([2]; cell cycle stage: G1/S) [°C] | melting temperature ([2]; cell cycle stage: mitosis) [°C] | solubility change mitosis (log2) [3] | thermal stability score [4, 5] | thermal stability score ([4]; cell cycle stage: mitosis)
MQLRNPELHLGCALALRFLALVSWDIPGARALDNGLARTPTMGWLHWERFMCNLDCQEEPDSCISEKLFMEMAELMVSEGWKDAGYEYLCIDDCWMAPQRDSEGRLQADPQRFPHGIRQLANYVHSKGLKLGIYADVGNKTCAGFPGSFGYYDIDAQTFADWGVDLLKFDGCYCDSLENLADGYKHMSLALNRTGRSIVYSCEWPLYMWPFQKPNYTEIRQYCNHWRNFADIDDSWKSIKSILDWTSFNQERIVDVAGPGGWNDPDMLVIGNFGLSWNQQVTQMALWAIMAAPLFMSNDLRHISPQAKALLQDKDVIAINQDPLGKQGYQLRQGDNFEVWERPLSGLAWAVAMINRQEIGGPRSYTIAVASLGKGVACNPACFITQLLPVKRKLGFYEWTSRLRSHINPTGTVLLQLENTMQMSLKDLL | 0.24 | 55.1 | 56.7 | -0.105 | -3.45 | -2.97
MQLTVKALQGRECSLQVPEDELVSTLKQLVSEKLNVPVRQQRLLFKGKALADGKRLSDYSIGPNSKLNLVVKPLEKVLLEEGEAQRLADSPPPQVWQLISKVLARHFSAADASRVLEQLQRDYERSLSRLTLDDIERLASRFLHPEVTETMEKGFSK [UBL4A] | 0.557 | 51.4 | 51.7 | 0.277 | 0.0718 | 0.136
MQMSYAIRCAFYQLLLAALMLVAMLQLLYLSLLSGLHGQEEQDQYFEFFPPSPRSVDQVKAQLRTALASGGVLDASGDYRVYRGLLKTTMDPNDVILATHASVDNLLHLSGLLERWEGPLSVSVFAATKEEAQLATVLAYALSSHCPDMRARVAMHLVCPSRYEAAVPDPREPGEFALLRSCQEVFDKLARVAQPGINYALGTNVSYPNNLLRNLAREGANYALVIDVDMVPSEGLWRGLREMLDQSNQWGGTALVVPAFEIRRARRMPMNKNELVQLYQVGEVRPFYYGLCTPCQAPTNYSRWVNLPEESLLRPAYVVPWQDPWEPFYVAGGKVPTFDERFRQYGFNRISQACELHVAGFDFEVLNEGFLVHKGFKEALKFHPQKEAENQHNKILYRQFKQELKAKYPNSPRRC [B4GAT1] | 0.284 | 53.7 | 54.1 | 0.00523 | 0.621 | 0.329
MQMVPSLPPASECAGEEKRVGTRTVFVGNHPVSETEAYIAQRFCDNRIVSSKYTLWNFLPKNLFEQFRRIANFYFLIIFLVQVTVDTPTSPVTSGLPLFFVITVTAIKQGYEDCLRHRADNEVNKSTVYIIENAKRVRKESEKIKVGDVVEVQADETFPCDLILLSSCTTDGTCYVTTASLDGESNCKTHYAVRDTIALCTAESIDTLRAAIECEQPQPDLYKFVGRINIYSNSLEAVARSLGPENLLLKGATLKNTEKIYGVAVYTGMETKMALNYQGKSQKRSAVEKSINAFLIVYLFILLTKAAVCTTLKYVWQSTPYNDEPWYNQKTQKERETLKVLKMFTDFLSFMVLFNFIIPVSMYVTVEMQKFLGSFFISWDKDFYDEEINEGALVNTSDLNEELGQVDYVFTDKTGTLTENSMEFIECCIDGHKYKGVTQEVDGLSQTDGTLTYFDKVDKNREELFLRALCLCHTVEIKTNDAVDGATESAELTYISSSPDEIALVKGAKRYGFTFLGNRNGYMRVENQRKEIEEYELLHTLNFDAVRRRMSVIVKTQEGDILLFCKGADSAVFPRVQNHEIELTKVHVERNAMDGYRTLCVAFKEIAPDDYERINRQLIEAKMALQDREEKMEKVFDDIETNMNLIGATAVEDKLQDQAAETIEALHAAGLKVWVLTGDKMETAKSTCYACRLFQTNTELLELTTKTIEESERKEDRLHELLIEYRKKLLHEFPKSTRSFKKAWTEHQEYGLIIDGSTLSLILNSSQDSSSNNYKSIFLQICMKCTAVLCCRMAPLQKAQIVRMVKNLKGSPITLSIGDGANDVSMILESHVGIGIKGKEGRQAARNSDYSVPKFKHLKKLLLAHGHLYYVRIAHLVQYFFYKNLCFILPQFLYQFFCGFSQQPLYDAAYLTMYNICFTSLPILAYSLLEQHINIDTLTSDPRLYMKISGNAMLQLGPFLYWTFLAAFEGTVFFFGTYFLFQTASLEENGKVYGNWTFGTIVFTVLVFTVTLKLALDTRFWTWINHFVIWGSLAFYVFFSFFWGGIIWPFLKQQRMYFVFAQMLSSVSTWLAIILLIFISLFPEILLIVLKNVRRRSARRNLSCRRASDSLSARPSVRPLLLRTFSDESNVL [ATP11C] | -0.156 | 55.2 | 55 | -0.202 | -0.694 | -1.66
MQNSHMDEYRNSSNGSTGNSSEVVVEHPTDFSTEIMNVTEMEQSPDDSPNVNASTEETEMASAVDLPVTLTETEANFPPEYEKFWKTVENNPQDFTGWVYLLQYVEQENHLMAARKAFDRFFIHYPYCYGYWKKYADLEKRHDNIKPSDEVYRRGLQAIPLSVDLWIHYINFLKETLDPGDPETNNTIRGTFEHAVLAAGTDFRSDRLWEMYINWENEQGNLREVTAIYDRILGIPTQLYSHHFQRFKEHVQNNLPRDLLTGEQFIQLRRELASVNGHSGDDGPPGDDLPSGIEDITDPAKLITEIENMRHRIIEIHQEMFNYNEHEVSKRWTFEEGIKRPYFHVKPLEKAQLKNWKEYLEFEIENGTHERVVVLFERCVISCALYEEFWIKYAKYMENHSIEGVRHVFSRACTIHLPKKPMVHMLWAAFEEQQGNINEARNILKTFEECVLGLAMVRLRRVSLERRHGNLEEAEHLLQDAIKNAKSNNESSFYAVKLARHLFKIQKNLPKSRKVLLEAIERDKENTKLYLNLLEMEYSGDLKQNEENILNCFDKAVHGSLPIKMRITFSQRKVEFLEDFGSDVNKLLNAYDEHQTLLKEQDSLKRKAENGSEEPEEKKAHTEDTTSSSTQMIDGDLQANQAVYNYSAWYQYNYQNPWNYGQYYPPPPT [PRPF39] | 0.0352 | 47.2 | 50.4 | -0.157 | 1.54 | 2.13
MQQDGLGVGTRNGSGKGRSVHPSWPWCAPRPLRYFGRDARARRAQTAAMALLAGGLSRGLGSHPAAAGRDAVVFVWLLLSTWCTAPARAIQVTVSNPYHVVILFQPVTLPCTYQMTSTPTQPIVIWKYKSFCRDRIADAFSPASVDNQLNAQLAAGNPGYNPYVECQDSVRTVRVVATKQGNAVTLGDYYQGRRITITGNADLTFDQTAWGDSGVYYCSVVSAQDLQGNNEAYAELIVLGRTSGVAELLPGFQAGPIEDWLFVVVVCLAAFLIFLLLGICWCQCCPHTCCCYVRCPCCPDKCCCPEALYAAGKAATSGVPSIYAPSTYAHLSPAKTPPPPAMIPMGPAYNGYPGGYPGDVDRSSSAGGQGSYVPLLRDTDSSVASEVRSGYRIQASQQDDSMRVLYYMEKELANFDPSRPGPPSGRVERAMSEVTSLHEDDWRSRPSRGPALTPIRDEEWGGHSPRSPRGWDQEPAREQAGGGWRARRPRARSVDALDDLTPPSTAESGSRSPTSNGGRSRAYMPPRSRSRDDLYDQDDSRDFPRSRDPHYDDFRSRERPPADPRSHHHRTRDPRDNGSRSGDLPYDGRLLEEAVRKKGSEERRRPHKEEEEEAYYPPAPPPYSETDSQASRERRLKKNLALSRESLVV | -0.186 | 53.8 | 54.6 | 0.133 | -3.76 | -1.62
MQRASRLKRELHMLATEPPPGITCWQDKDQMDDLRAQILGGANTPYEKGVFKLEVIIPERYPFEPPQIRFLTPIYHPNIDSAGRICLDVLKLPPKGAWRPSLNIATVLTSIQLLMSEPNPDDPLMADISSEFKYNKPAFLKNARQWTEKHARQKQKADEEEMLDNLPEAGDSRVHNSTQKRKASQLVGIEKKFHPDV [UBE2T] | 0.66 | 49.2 | 49.9 | 0.118 | -0.273 | -0.0505
MQTPVNIPVPVLRLPRGPDGFSRGFAPDGRRAPLRPEVPEIQECPIAQESLESQEQRARAALRERYLRSLLAMVGHQVSFTLHEGVRVAAHFGATDLDVANFYVSQLQTPIGVQAEALLRCSDIISYTFKP [GEMIN7] | -0.401 | 53 | – | -0.0302 | -0.755 | -0.344
MRERIWAPPLLLLLPLLLPPPLWGGPPDSPRRELELEPGPLQPFDLLYASGAAAYYSGDYERAVRDLEAALRSHRRLREIRTRCARHCAARHPLPPPPPGEGPGAELPLFRSLLGRARCYRSCETQRLGGPASRHRVSEDVRSDFQRRVPYNYLQRAYIKLNQLEKAVEAAHTFFVANPEHMEMQQNIENYRATAGVEALQLVDREAKPHMESYNAGVKHYEADDFEMAIRHFEQALREYFVEDTECRTLCEGPQRFEEYEYLGYKAGLYEAIADHYMQVLVCQHECVRELATRPGRLSPIENFLPLHYDYLQFAYYRVGEYVKALECAKAYLLCHPDDEDVLDNVDYYESLLDDSIDPASIEAREDLTMFVKRHKLESELIKSAAEGLGFSYTEPNYWIRYGGRQDENRVPSGVNVEGAEVHGFSMGKKLSPKIDRDLREGGPLLYENITFVYNSEQLNGTQRVLLDNVLSEEQCRELHSVASGIMLVGDGYRGKTSPHTPNEKFEGATVLKALKSGYEGRVPLKSARLFYDISEKARRIVESYFMLNSTLYFSYTHMVCRTALSGQQDRRNDLSHPIHADNCLLDPEANECWKEPPAYTFRDYSALLYMNDDFEGGEFIFTEMDAKTVTASIKPKCGRMISFSSGGENPHGVKAVTKGKRCAVALWFTLDPLYRELERIQADEVIAILDQEQQGKHELNINPKDEL [P3H2] | -0.176 | 53.7 | 53.9 | -0.0732 | 4.77 | 5.82
MRFLAATFLLLALSTAAQAEPVQFKDCGSVDGVIKEVNVSPCPTQPCQLSKGQSYSVNVTFTSNIQSKSSKAVVHGILMGVPVPFPIPEPDGCKSGINCPIQKDKTYSYLNKLPVKSEYPSIKLVVEWQLQDDKNQSLFCWEIPVQIVSHL [NPC2] | 0.123 | 58.9 | 53.4 | 0.0342 | -3.22 | -2.19
MRGAMELEPELLLQEARENVEAAQSYRRELGHRLEGLREARRQIKESASQTRDVLKQHFNDLKGTLGKLLDERLVTLLQEVDTIEQETIKPLDDCQKLIEHGVNTAEDLVREGEIAMLGGVGEENEKLWSFTKKASHIQLDSLPEVPLLVDVPCLSAQLDDSILNIVKDHIFKHGTVASRPPVQIEELIEKPGGIIVRWCKVDDDFTAQDYRLQFRKCTSNHFEDVYVGSETEFIVLHIDPNVDYQFRVCARGDGRQEWSPWSVPQIGHSTLVPHEWTAGFEGYSLSSRRNIALRNDSESSGVLYSRAPTYFCGQTLTFRVETVGQPDRRDSIGVCAEKQDGYDSLQRDQAVCISTNGAVFVNGKEMTNQLPAVTSGSTVTFDIEAVTLGTTSNNEGGHFKLRVTISSNNREVVFDWLLDQSCGSLYFGCSFFYPGWKVLVF [CRLF3] | -0.117 | 50 | 49.7 | -0.13 | -0.0259 | -0.0234
MRGVWPPPVSALLSALGMSTYKRATLDEEDLVDSLSEGDAYPNGLQVNFHSPRSGQRCWAARTQVEKRLVVLVVLLAAGLVACLAALGIQYQTRSPSVCLSEACVSVTSSILSSMDPTVDPCHDFFSYACGGWIKANPVPDGHSRWGTFSNLWEHNQAIIKHLLENSTASVSEAERKAQVYYRACMNETRIEELRAKPLMELIERLGGWNITGPWAKDNFQDTLQVVTAHYRTSPFFSVYVSADSKNSNSNVIQVDQSGLGLPSRDYYLNKTENEKVLTGYLNYMVQLGKLLGGGDEEAIRPQMQQILDFETALANITIPQEKRRDEELIYHKVTAAELQTLAPAINWLPFLNTIFYPVEINESEPIVVYDKEYLEQISTLINTTDRCLLNNYMIWNLVRKTSSFLDQRFQDADEKFMEVMYGTKKTCLPRWKFCVSDTENNLGFALGPMFVKATFAEDSKSIATEIILEIKKAFEESLSTLKWMDEETRKSAKEKADAIYNMIGYPNFIMDPKELDKVFNDYTAVPDLYFENAMRFFNFSWRVTADQLRKAPNRDQWSMTPPMVNAYYSPTKNEIVFPAGILQAPFYTRSSPKALNFGGIGVVVGHELTHAFDDQGREYDKDGNLRPWWKNSSVEAFKRQTECMVEQYSNYSVNGEPVNGRHTLGENIADNGGLKAAYRAYQNWVKKNGAEHSLPTLGLTNNQLFFLGFAQVWCSVRTPESSHEGLITDPHSPSRFRVIGSLSNSKEFSEHFRCPPGSPMNPPHKCEVW [ECE1] | 0.243 | 56.1 | 55.2 | -0.00992 | -1.05 | -0.159
